Laboratory results published in US20230129812A1, “COMPOSITIONS AND METHODS FOR TREATING PULMONARY HYPERTENSION” (Acceleron Pharma Inc., priority 2020, published 2023).
Positions count from the first letter of the chain named. Names and notes keep the numbering of the source.

T1: activin A (Homo sapiens, UniProt P08476)
T1 sequence (P08476 311-426): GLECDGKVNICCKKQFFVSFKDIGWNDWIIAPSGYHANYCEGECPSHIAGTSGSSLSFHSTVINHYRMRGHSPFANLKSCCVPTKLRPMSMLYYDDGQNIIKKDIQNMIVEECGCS

T2: ActA (Homo sapiens, UniProt P08476)
T2 sequence (P08476 311-426): T1 sequence (P08476 311-426)

T3: GDF11 (Homo sapiens, UniProt O95390)
T3 sequence (O95390 299-407): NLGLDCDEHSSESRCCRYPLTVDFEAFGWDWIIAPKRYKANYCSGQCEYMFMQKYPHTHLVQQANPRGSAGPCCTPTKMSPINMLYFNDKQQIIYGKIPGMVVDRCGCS

T4: GDF8 (Homo sapiens, UniProt O14793)
T4 sequence (O14793 267-375): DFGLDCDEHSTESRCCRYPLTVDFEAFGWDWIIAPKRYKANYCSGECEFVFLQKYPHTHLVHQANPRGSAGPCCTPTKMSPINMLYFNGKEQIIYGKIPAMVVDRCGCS

B1: A64 20-134: ActRIIB-Fc with alanine at position 64, amino acids 20-134 of SEQ ID NO:1 (protein)
chain: GRGEAETRECIYYNANWELERTNQSGLERCEGEQDKRLHCYASWANSSGTIELVKKGCWLDDFNCYDRQECVATEENPQVYFCCCEGNFCNERFTHLPEAGGPEVTYEPPPTAPT
modifications: Fc fusion partner not cited
B2: R64 L79P 20-134: ActRIIB-Fc variation R64 L79P, amino acids 20-134 of SEQ ID NO:1 (protein)
chain: B1 chain with A45R, L60P
modifications: Fc fusion partner not cited
B3: R64N 20-134: ActRIIB-Fc variation R64N, amino acids 20-134 of SEQ ID NO:1 (protein)
chain: B1 chain with A45N
modifications: Fc fusion partner
B4: R64 L79P K74A 20-134: ActRIIB-Fc variation R64 L79P K74A, amino acids 20-134 of SEQ ID NO:1 (protein)
chain: B1 chain with A45R, K55A, L60P
modifications: Fc fusion partner not cited
B5: R64 20-129: ActRIIB-Fc R64, amino acids 20-129 of SEQ ID NO:1 (protein)
chain: GRGEAETRECIYYNANWELERTNQSGLERCEGEQDKRLHCYASWRNSSGTIELVKKGCWLDDFNCYDRQECVATEENPQVYFCCCEGNFCNERFTHLPEAGGPEVTYEPP
modifications: Fc fusion partner not cited
B6: R64 A24N 20-119: ActRIIB-Fc variation R64 A24N, amino acids 20-119 of SEQ ID NO:1 (protein)
chain: GRGENETRECIYYNANWELERTNQSGLERCEGEQDKRLHCYASWRNSSGTIELVKKGCWLDDFNCYDRQECVATEENPQVYFCCCEGNFCNERFTHLPEA
modifications: Fc fusion partner not cited
B7: R64 A24N K74A 20-119: ActRIIB-Fc variation R64 A24N K74A, amino acids 20-119 of SEQ ID NO:1 (protein)
chain: B6 chain with K55A
modifications: Fc fusion partner not cited
B8: ActRIIB(K74A 20-134)-hFc: ActRIIB-Fc variant with K74A substitution, residues 20-134 (protein)
chain: GRGEAETRECIYYNANWELERTNQSGLERCEGEQDKRLHCYASWRNSSGTIELVAKGCWLDDFNCYDRQECVATEENPQVYFCCCEGNFCNERFTHLPEAGGPEVTYEPPPTAPTGGGTHTCPPCPAPELLGGPSVFLFPPKPKDTLMISRTPEVTCVVVDVSHEDPEVKFNWYVDGVEVHNAKTKPREEQYNSTYRVVSVLTVLHQDWLNGKEYKCKVSNKALPVPIEKTISKAKGQPREPQVYTLPPSREEMTKNQVSLTCLVKGFYPSDIAVEWESNGQPENNYKTTPPVLDSDGSFFLYSKLTVDKSRWQQGNVFSCSVMHEALHNHYTQKSLSLSPGK
B9: R64 P129S P130A 20-134: ActRIIB-Fc variation R64 P129S P130A, amino acids 20-134 of SEQ ID NO:1 (protein)
chain: B8 chain with A55K, P110S, P111A
B10: D80M: soluble ActRIIB-Fc variant, as reported in WO2006/012627 (protein)
chain: SGRGEAETRECIYYNANWELERTNQSGLERCEGEQDKRLHCYASWANSSGTIELVKKGCWLMDFNCYDRQECVATEENPQVYFCCCEGNFCNERFTHLPEA
modifications: left off: a dimerising Fc or GST
B11: F82A: soluble ActRIIB-Fc variant, as reported in WO2006/012627 (protein)
chain: B10 chain with M62D, F64A
modifications: left off: a dimerising Fc or GST
B12: D80N: soluble ActRIIB-Fc variant, as reported in WO2006/012627 (protein)
chain: B10 chain with M62N
modifications: left off: a dimerising Fc or GST
B13: WT (64A): soluble ActRIIB-Fc, wild type with 64A, as reported in WO2006/012627 (protein)
chain: B10 chain with M62D
modifications: left off: a dimerising Fc or GST
B14: ActRIIB(P129S, P130R 20-134)-hFc: ActRIIB-Fc variant with P129S and P130R substitutions, residues 20-134 (protein)
chain: B8 chain with A55K, P110S, P111R

Target: T1, activin A
Test: A-204 reporter gene assay, pGL3(CAGA)12 luciferase
Type: cell-based
Design: key to Activin Inhibition Activity: +: Poor activity (roughly 1 × 10^−6 KI); ++: Moderate activity (roughly 1 × 10^−7 KI); +++: Good (wild-type) activity (roughly 1 × 10^−8 KI); ++++: Greater than wild-type activity
Conditions: Table 9; cell-based A-204 assay
Source text: (§1) An A-204 reporter gene assay was used to evaluate the effects of ActRIIB-Fc proteins and ActRIIB variant Fc fusion polypeptides on signaling by GDF-11 and activin A. Cell line: human rhabdomyosarcoma (derived from muscle). Reporter vector: pGL3(CAGA)12 (described in Dennler et al, 1998, EMBO 17: 3091-3100). The CAGA12 motif is present in TGF-beta responsive genes (e.g., PAI-1 gene), so this vector is of general use for factors signaling through SMADs.
(§2) Day 1: Split A-204 cells into 48-well plate.
(§3) Day 2: A-204 cells transfected with 10 ug pGL3(CAGA)12 or pGL3(CAGA)12(10 ug)+pRLCMV (1 pg) and Fugene.
(§4) Day 3: Add factors (diluted into medium+0.1% BSA). Inhibitors need to be preincubated with factors for 1 hr before adding to cells. Six hrs later, cells were rinsed with PBS and lysed.
(§5) This is followed by a luciferase assay.
(§6) Activity of ActRIIB-Fc proteins and ActRIIB variant Fc fusion polypeptides was tested in a cell-based assay as described above. Some variants were tested in different C-terminal truncation constructs. As discussed above, truncations of five or fifteen amino acids caused reduction in activity. […]

Activin Inhibition Activity | Molecule
+ (Poor activity (roughly 1 × 10^−6 KI)) | B1
+ (Poor activity (roughly 1 × 10^−6 KI)) | B2
+ (Poor activity (roughly 1 × 10^−6 KI)) | B3
+ (Poor activity (roughly 1 × 10^−6 KI)) | B4
+ (Poor activity (roughly 1 × 10^−6 KI)) | B7
++++ | B8

Molecule | Activin Inhibition Activity
B5 | +++ (Good (wild-type) activity (roughly 1 × 10^−8 KI))
B6 | ++ (Moderate activity (roughly 1 × 10^−7 KI))
B9 | +++ (Good (wild-type) activity (roughly 1 × 10^−8 KI))

Target: T2, ActA
Test: not given
Design: key to ActA binding relative to WT: *: No observed binding; −−: <⅕ WT binding; −: ~½ WT binding; +: WT; ++: <2x increased binding; +++: ~5x increased binding; ++++: ~10x increased binding; +++++: ~40x increased binding
Conditions: Table 11, reproduced from WO2006/012627; cited from earlier work

Molecule | ActA binding relative to WT
B10 | *
B11 | ++ (<2x increased binding)
B12 | *
B13 | (+)

Target: T3, GDF11
Test: A-204 reporter gene assay, pGL3(CAGA)12 luciferase
Type: cell-based
Design: key to GDF11 Inhibition Activity: +: Poor activity (roughly 1 × 10^−6 KI); ++: Moderate activity (roughly 1 × 10^−7 KI); +++: Good (wild-type) activity (roughly 1 × 10^−8 KI); ++++: Greater than wild-type activity
Conditions: Table 9; cell-based A-204 assay
Source text: as §1, §2, §3, §4, §5, §6

GDF11 Inhibition Activity | Molecule
+ (Poor activity (roughly 1 × 10^−6 KI)) | B1
+ (Poor activity (roughly 1 × 10^−6 KI)) | B2
+ (Poor activity (roughly 1 × 10^−6 KI)) | B3
+ (Poor activity (roughly 1 × 10^−6 KI)) | B4
+ (Poor activity (roughly 1 × 10^−6 KI)) | B7
++++ | B8

Molecule | GDF11 Inhibition Activity
B5 | +++ (Good (wild-type) activity (roughly 1 × 10^−8 KI))
B6 | ++ (Moderate activity (roughly 1 × 10^−7 KI))
B9 | +++ (Good (wild-type) activity (roughly 1 × 10^−8 KI))

Target: T4, GDF8
Test: Biacore assay, ActRIIB-Fc captured with anti-hFc antibody, ligand injected (Example 8)
Type: binding
Conditions: GDF8; Table 10
Procedure: (§7) Binding of certain ActRIIB-Fc proteins and ActRIIB variant Fc fusion polypeptides to ligands was tested in a Biacore™ assay.
(§8) The ActRIIB-Fc variants or wild-type protein were captured onto the system using an anti-hFc antibody. Ligands were injected and flowed over the captured receptor proteins.

Koff | Molecule
2.03e-05 s⁻¹ | B8
0.00018 s⁻¹ | B14

Target: T1, activin A
Test: as above
Type: binding
Conditions: Activin A; Table 10
Procedure: as §7, §8

Koff | Molecule
0.000417 s⁻¹ | B14

Target: T3, GDF11
Test: not given
Design: key: *: No observed binding; −−: <⅕ WT binding; −: ~½ WT binding; +: WT; ++: <2x increased binding; +++: ~5x increased binding; ++++: ~10x increased binding; +++++: ~40x increased binding
Conditions: Table 11, reproduced from WO2006/012627; cited from earlier work

Molecule | GDF11 binding relative to WT
B10 | *
B11 | − (~½ WT binding)
B12 | *
B13 | (+)
